Changes are numbered by the printed parent chain. Names may count otherwise.
B1: TDP-43 prion-like domain, TDP-43(267–414) (domain or fragment, UniProt Q13148 267-414, looked up)
chain: NRQLERSGRFGGNPGGFGNQGGFGNSRGGGAGLGNNQGSNMGGGMNFGAFSINPAMMAAAQAALQSSWGMMGMLASQQNQSGPSGNNQNQGNMQREPNQAFGSGNNSYSGSNSGAAIGWGSASNAGSGSGFNGGFGSSMDSKSSGWGM
notes: Uniformly 15N or 15N/13C labelled for NMR; Fibril seeds of this molecule (from the SSNMR rotor) are the target in the cross-seeding assay; also called TDP-43 PrLD; PrLD of TDP-43; source: E. coli BL21 Star (DE3), inclusion bodies, purified (Ni-NTA in 8 M urea, PD-10 desalting at pH 4)
B2: TDP-43 PrLD variant F313A+F316A (domain or fragment, UniProt Q13148 267-414, looked up)
chain: B1 chain with F47A, F50A
notes: TDP-43 prion-like domain, residues 267-414, with the 2 central Phe residues changed to Ala; The text prints the variant once as F312A+F316A and otherwise as F313A+F316A; also called double mutant; F312A+F316A (as printed once); source: desalted from the 8 M urea-containing solution with a PD-10 column

What was measured:
[1] = target: the molecule itself; assay: solution NMR, 1H-15N HSQC peak intensities over time; 55 and 110 μM TDP-43 PrLD, pH 4.0, 298 K, 1 mM CD3COOD in 85/15 H2O/D2O, no salt or RNA; first spectrum within 1 hour, second after approximately 20 hours; self-association into aggregates and droplets
[2] = target: B1; assay: cross-seeding followed by ThT fluorescence; 5 μM of each protein variant in 1 mM CD3COOD with 40 μM ThT, 2% (0.12 μM) seeds of the wild-type fibrils studied by SSNMR, 25°C, excitation 450 nm, emission 480 nm; details: both partners purified

| Binder | binding result [1] | binding result [2] |
| --- | --- | --- |
| B1 | binds | – |
| B2 | – | binds |
